Source: patent US20250313643A1 (UNM RAINFOREST INNOVATIONS, published 2025)

T1: CCKBR peptide
T1 construct: It may be the same as m3 or m4; also called target CCKBR peptide; target peptide (immunization and selection)
T1 peptide: CETPRIRGTGTRELE


How the values were obtained:
[1] = molecular target: T2, human CCKBR extracellular peptide (human, UniProt P32239 39-53); assay: Assay and target are not stated on the sheet. The Kd stands in the legend box of an in vivo plot. The text describes affinity measurement of the humanized variants against the human peptide.
T2 construct: domain: extracellular fragment of human CCK-BR; also called human peptide; human CCKBR peptide

[2] = molecular target: T2, human CCKBR extracellular peptide; assay: indirect ELISA on human CCKBR peptide, OD450nm against nM scFv; column head 'Apparent kD (nM)'
[3] = molecular target: T2, human CCKBR extracellular peptide; assay: ELISA affinity measurement
[4] = molecular target: T1, CCKBR peptide; assay: ELISA (panel 'Binding Affinity by ELISA'), OD450nm against nM scFv. The coated peptide is not named in the panel.

| Kd [1] | Kd [2] | fold improvement in affinity compared with parental mscFv77-2 [3] | Kd [4] | Binder |
| --- | --- | --- | --- | --- |
| 3.1 nM | 4.3 nM | > 25 fold | – | scFv77-2 hu HC2-LC3 (scFv, also called humanized CCKBR scFv HC2-LC3; CCKBR hscFv HC2-LC3) scFv: MAQVQLVQSGAEVKKPGASVKVSCKASGFNIKDYYIHWVRQAPGQGLEWIGWIDPENGDTEYAPKFQGRATMTADTSISTAYMELSRLRSDDTAVYYCNAGGRFAYWGQGTLVTVSSGGGGSGGGGSGGGGSDIQMTQSPSTLSASVGDRVTITCKSSQSLLNSGNQKNYLAWYQQKPGKAPKLLIYGASTRESGVPSRFSGSGSGTEFTLTISSLQPDDFATYYCQNDHSYPYTFGGGTKVEIKENLYFQGAAALEHHHHHH |
| 9.8 nM | – | – | – | HC2-LC2 (scFv, also called scFv77-2 hu HC2-LC2; scFv77-2 hu HC2-linker-LC2) scFv (VH-linker-VL, with protease site and His tag): MAQVQLVQSGAEVKKPGASVKVSCKASGFNIKDYYIHWVRQAPGQGLEWIGWIDPENGDTEYAPKFQGRATMTADTSISTAYMELSRLRSDDTAVYYCNAGGRFAYWGQGTLVTVSSGGGGSGGGGSGGGGSDIQMTQSPSSLSASVGDRVTITCKSSQSLLNSGNQKNYLAWYQQKPGKAPKLLIYGASTRESGVPSRFSGSGSGTDFTLTISSLQPEDFATYYCQNDHSYPYTFGGGTKLEIKENLYFQGAAALEHHHHHH |
| – | 109 nM | – | 195 nM | mscFv77-2 Parental (scFv, V domains shown, Murine single-chain Fv; It has a kappa light chain; also called murine parent scFv; parental scFv) VH: EVQLQQAGAELVRSGASVKLSCTASGFNIKDYYIHWVKQRPEQGLEWIGWIDPENGDTEYAPKFQGKATMTADTSSNTAYLQLSSLTSEDTAVYYCNAGGRFAYWGQGTLVTVSA VL: DIVMTQSPSSLSVSAGEKVTMSCKSSQSLLNSGNQKNYLAWYQQKPGQPPKLLIYGASTRESGVPDRFTGSGSGTDFTLTISSVQAEDLAVYYCQNDHSYPYTFGGGTKLEIK |
